The text below walks through data of patent US20230391872A1 (ANAPTYSBIO, published 2023).

The target of assay [1] is T1, human BTLA on cells (stably transfected 293c18 cells; human peripheral blood T and B cells) (human, UniProt Q7Z6A9 31-289).
T1 construct: whole, on cells; the cells are named under assay; also called cell surface BTLA; full-length human BTLA
The assay can be described thus: flow cytometry, DyLight 650-labeled 6G3 IgG4 on human peripheral blood CD8+ T cells. As to the method: PBMCs were washed and incubated at 2×10⁷ cells/ml in FACS buffer (PBS, 1% BSA, 0.02% sodium azide) with Human BD Fc Block (2.5 μg/1×10⁶ cells, BD Biosciences) and LIVE/DEAD® Fixable Yellow Dead Cell Stain (30 μl, ThermoFisher Scientific) for 10 minutes on ice. Cells were washed once in FACS buffer, resuspended in FACS buffer at 1×10⁷ cells/ml and the following phenotyping antibodies added: Alexa Fluor 488-anti-human CD3E clone SK7, Brilliant Violet 421-anti-human CD4 clone OKT4, Brilliant Violet 785-anti-human CD8 clone SK1, and Brilliant Violet 570-anti-human CD20 clone 2H7 (50 μl each; all from BioLegend, Inc.). […] Samples were washed twice in FACS buffer, resuspended in 150 μl/well FACS buffer, and analyzed for fluorescence on a NovoCyte Flow Cytometer (ACEA Biosciences, Inc.). Data were analyzed using NovoExpress Software (ACEA Biosciences, Inc.). Median fluorescence intensities of anti-BTLA or isotype staining on gated CD4⁺ T cells (FIG. 4), CD8⁺ T cells (FIG. 4), or CD20⁺ B cells (FIG. 4) were graphed and curves fit with log(agonist) vs. response (three parameters) least squares fit for EC₅₀ calculation in GraphPad Prism (GraphPad Software, Inc.).

The target in assay [2] is T2, cynomolgus monkey BTLA ECD-his (monomeric cynomolgus monkey BTLA-his) (cynomolgus monkey, UniProt A0A2K5W7M7 31-157).
T2 construct: extracellular domain; also called cynomolgus monkey BTLA extracellular domain
T2 sequence: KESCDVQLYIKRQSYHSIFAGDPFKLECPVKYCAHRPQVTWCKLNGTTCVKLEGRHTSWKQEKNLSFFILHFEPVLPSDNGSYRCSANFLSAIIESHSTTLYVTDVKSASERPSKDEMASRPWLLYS
The assay can be described thus: Kinetic Exclusion Assay (KinExA 3000), solution phase, 6G3 IgG4 APE10840.04 at 100 pM, cynomolgus monkey BTLA ECD-his titrated. As to the method:
Solution-based affinity measurements of 6G3 IgG4 (APE10840.04 (H Chain SEQ ID NO: 144, L Chain SEQ ID NO: 174)) binding to BTLA were determined on a KinExA 3000 (Sapidyne Instruments). Azlactone beads (ThermoFisher Scientific) were coated with human BTLA ECD-his (30 μg/ml) or cynomolgus monkey BTLA ECD-his (20 μg/ml) in 50 mM Na2CO3 for 2 hours at room temperature and blocked with 10 mg/ml BSA. 6G3 IgG4 APE10840.04 concentration was kept constant at 100 pM for binding in both human and cynomolgus monkey BTLA experiments. Human or cynomolgus monkey BTLA ECD-his was added at 25° C. in 2.5-fold dilutions from 1000 nM to 68 fM. Sample sets were equilibrated at 4° C. for 72 hours and brought to room temperature for 6 hours before capturing free antibody with BTLA-coupled Azlactone beads. […] Maximum and background signals were determined on samples with 6G3 only and buffer only, respectively. Data were analyzed using KinExA Pro Software 3.2.6.
(In general: In KinExA the mixture passes briefly over coated beads that capture the unbound partner.)

The target in assay [3] is T3, human BTLA ECD-his (monomeric human BTLA-his) (human, UniProt Q7Z6A9 31-157).
T3 construct: extracellular domain; also called human BTLA extracellular domain
T3 sequence (looked up): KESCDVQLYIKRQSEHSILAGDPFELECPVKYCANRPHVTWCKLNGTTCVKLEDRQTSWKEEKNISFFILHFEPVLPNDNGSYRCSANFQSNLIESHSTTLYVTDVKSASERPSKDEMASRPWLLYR
Put plainly: SPR (Biacore T200), antibody captured on anti-human IgG chip, monomeric BTLA-his flowed at 60, 20, 6.7 and 2.2 nM, 1:1 binding model, 25 C [upper right panel (Hu BTLA]. Here is the method: Surface plasmon resonance (SPR) analyses were carried out using a Biacore T200 (GE Healthcare Life Sciences). Kinetic constants were determined using a 1:1 binding model in the Biacore T200 Evaluation Software to calculate on- and off-rates (kₐ and kd, respectively), and dissociation constants as a measure of overall affinity (KD). Anti-human IgG (GE Healthcare Life Sciences) was immobilized on a CMS chip using EDC-activated amine coupling chemistry (420 seconds contact at a flow rate of 10 μl/min). Antibodies (APE10585.04 6G3 IgG1 and APE10840.05 6G3 IgG4), each at 0.5 μg/m1) were captured in a 60 second contact with the flow cell using a flow rate of 10 μl/min. Monomeric human BTLA-his or cynomolgus monkey BTLA-his at 60 nM, 20 nM, 6.7 nM and 2.2 nM concentrations was flowed over captured antibody (480 seconds association, 1800 seconds dissociation). Runs were at 25° C. and used buffer containing 10 mM HEPES, pH 7.6, 150 mM NaCl, 3 mM EDTA, 0.05% polysorbate 20 (HBS-EP+, pH 7.6; Teknova) for the mobile phase and all dilutions. At the end of each cycle, bound antigen was removed by regeneration with two successive exposures (60 seconds and 90 seconds) to 3 M MgCl2 (30 μl/min). Sensorgrams and binding constants corresponding to the experiment are shown in FIG. 1 (human BTLA) and FIG. 1 (cynomolgus monkey BTLA). Antibody capture levels in resonance units (RU) are listed at the right side of each panel.
A general note: SPR reads the build-up and loss of mass on a sensor chip optically.

B1: 6G3 IgG4 anti-BTLA antibody (APE10840 / APE12839 / APE13308) (antibody, V domains shown)
VH: QVQLVQSGAEVKKPGSSVKVSCKASGYVFSTSWMNWVRQAPGQGLEWMGRIYPGDADTNYVGKFKGRVTITADKSTTTAYMELSSLRSEDTAVYFCAKSGTFNFGNYRWYFDVWGKGTTVTVSS
VL: AIQLTQSPSSLSASVGDRVTITCRVSENIYSHLAWYQQKPGKAPKLLIYAATNLALGVPSRFSGSGSGTDYTLTISSLQPEDFATYYCQLFWGPPLTFGGGTKVEIKR
notes: Humanized antibody from a mouse hybridoma, tested as human IgG4 (detected with anti-human kappa); Some assays used labelled lots (DyLight 650, AF647, biotin, DyL488); also called 6G3 antibody; APE10840.03
As to B1, in assay [1], the EC50 – broadly, the concentration that produces a half-maximal response – is ~3.2 nM. Further, the Kd (as a rule, the constant that tells how readily two partners part at equilibrium) in assay [2] was ~1.66 nM. In assay [3], binding was characterised by a dissociation constant (Kd) of 5.35 nM, the koff (usually a measure of how fast the partners let go of each other) worked out at 0.0003 s⁻¹ and the kon (usually a measure of how fast the partners come together) is 56200 M⁻¹ s⁻¹.
